# According to the RNAGym collection of RNA variant scans (doi:10.1073/pnas.2313332121):
# B1: TPR t1 (parent)
# chain: GACCAAUCUGCCCUCAGAGCUCGAGAACAUCUUCGGAUGCAGAGGAGGCAGGCUUCGGUGGCGCGAUAGCGCCAACGUCCUCAACCUCCAAUGCAUCCCACCACAUGAUGAUGCCUGAAGAGCCUUGGUUUUUUG
# Variants of: B1
# Test: polymerase ribozyme fitness, log enrichment relative to wild type (log ratio); higher = more active; in vitro selection for triplet polymerase activity
# How it was run: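 One round of in vitro selection, in triplicate, was applied to PCR-built, transcribed mutant libraries of each subunit of a heterodimeric triplet polymerase ribozyme. The steps were annealing with a biotinylated primer, partner subunit and triplets, incubation frozen at −7 °C, gel excision of extended constructs, streptavidin-bead capture and RT-PCR. Fitness is the logarithm, base 2, of genotype enrichment over wild-type enrichment from inverse-variance-weighted replicate averages of Illumina-sequenced inputs and outputs, keeping genotypes with ≥10 input reads and ≥1 read per output.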
row,Variant,polymerase ribozyme fitness (log ratio)
1,GACCAAUCUGCCCUCAGAGAUCGAGAACAUCUUCGGAUGCAGAGGAGGCAGGCUUUGGUGGCGCGAUAGCGCCAACGUCUUCAACCUCCAAUGCAUCCCACCACAUGAUGAUGCCUGAAGAGCCUUGGUUUUUUG [C20A C56U C80U],-4.41
2,GACCAAUCUGCCCUCAGAGCUCGAGAACAUCUUCGGAUGCAGAGGAGGCAGGCUUCGGUGGCGCGAUGGCACCAACGUCCUCAACCUCCAAUGCAUCCCACCACAUGAUGAUGCCUGAAGAGCCUUGGUUUUUUG [A68G G71A],-4.15
3,GACCAAUCUGCCCUCAGAGCUCGAGAACAUUUUCGGAUGCAGAGGAGGCAGGCUUCGGUGACGCGAUAGCGCCAACGUCCUCAACCUCCAAUGCAUCCCACCACAUGAUGAUGCCUGAAGAGCCUUGGUUUUUUG [C31U G61A],-3.81
4,GACCAAUCUGCCCUCAGAGCUCGAGAACAUCUUCGUAUGCAGAGGAAGCAGGCUUCGGUGGCGCGAUAGCGCCAACGUUCUCAACCUCCAAUGCAUCCCACCACAUGAUGAUGCCUGAAGAGCCUUGGUUUUUUG [G36U G47A C79U],-2.47
5,GACCAAUCUGCCAUCAGAGCUCGAGAACAUCUUCGGAUGCAGAGGAGGCAGGCUUCGGUGGCGCGAUAGCGUCAACGACCUCAACCUCCAAUGCAUCCCACCACAUGAUGAUGCCUGAAGAGCCUUGGUUUUUUG [C13A C72U U78A],-2.1
6,GACCAAUCUGCCCUCAGAGCUCGAGAACAUCUUCGGAUGCAGAGGAGGCAGGCUUCGGUGGCGCGAUAGCGCCAACGUCCUCAACCUCCAAUGCAUCCCACAACAUGAUGAAGCAGGAAGAGCGUUGGUUUUCUG [C102A U112A C115A U116G C124G U133C],-3.77
7,GACCAAUCUGCCCUCAGAGCUCGAGAACAUCUUCGGAUGCAGAGGAGGCAGGCUUUGGUGGCGCGAUAGCGCCAACGUCCUCAACCUCCAAUGCAUCCCACCACAUGAUGAUGCCUGAUGAGCCUUGGUUUUUUG [C56U A119U],-0.819
8,GACCAAUCUGCCCUCAGAGCUCGAGAACAUCUUCGGAUGCAGAGGAGGGCGGCUUCGGUGGCGCGAUAGCGCCAACGUCCUCAACCUCUACUGCAUCCCACCACAUGAUGAUGCCUGAAGAGCCUUGGUUUUUUG [C49G A50C C89U A91C],-2.86
9,GACCAAUUUGCCCUCAGAGGUCGAGAACAUCUUCGGAUGCAGAGGAGGCAGGCUUCGGUGGCGCGAUAGCGCCAACGUCCUCAACCUCCAAUGCAUCCCACCACAUGAUGCUGCCUGAAGAGACUUGGUUUUUUG [C8U C20G A111C C123A],-5.26
10,GACCAAUCUGCCCUCAGAGCUCGAGAACAUCUUCGGAUGCAGAGGAGGCAGGCUUCGGUGGCGCGAUAGCGCCAACGUCCCCAACCUACAAUGCAUCCCACCACAUGAUGAUGCCUGAAGAGGCUUGGUUUUUUU [U81C C88A C123G G135U],1.08
11,GACCAAUCUGCCCUCAGAGCUCGAGAACAUCUUCGGAUGCAGAGGAGGCAGGCUUCGGUGGCGCGAUAGCGCCAACGUCCUCAACCUCCAAUGCAACCCACCAUAUGAUGAUGCCUGAAGAGCCUUGGUUUUUUG [U96A C104U],-0.116
12,GACCAAUCUGCCCUCAGAGAACGAGAACAUCUUCGGAUGCAGAGGAGGCAGGCCUCGGUGGCGCGAUAGCGCCAACGUCCUCAACCUCCAAUGUAUCCCACCACAUGAGGAUGCCUGAAGAGCCUUGGUUUUUUG [C20A U21A U54C C94U U109G],-5.29
13,GACCAAUCUGCCCUCAGAGCUCGAGAACAUCUUCGGAUGCAGAGGAGACAGGCUUCGGUGGCGCGAUAGCGCCAACGUCCCCAACCUCCAAUGCAUCCCACAACAUGAUGAUGCCUGAAGCGCCUUGGUUUUUUG [G48A U81C C102A A121C],-0.944
14,GACAACUCUGCCCUCAGAGCUCGAGAACAUCUUCGGAUGCAGAGGCGGAAGGCUUCGGUGGCGCGAUAGCGGCAACGUCCUCACCCUCCAAUGCAUCCCACCACAUGAUGAUGCCUGAUGAGACUGGGUUUUUUG [C4A A6C A46C C49A C72G A84C A119U C123A U126G],-2.77
15,GACCAAUCUACCCUCAGAGCUCGAGAACUUCUUCGGAUGCAGAGGAGGCAGGCUUCGGUGGCGCGAUAGCGCCAACGUCCUCAACCUCCAAUGCAUCCCACCACAUGAUAAUGCCUGAAGAGCCUUGGUUUUUUG [G10A A29U G110A],-2.97
16,GACCAAUCUGCCCUCAGAGCUCGAGAACAUCUUCGGAUGCAGAGGCGGCAGGCUUCGGUGGCGCGAUAGCGCCAACUUCCUCAACCUCCAAUGCAUCCCCCCACAUGAUGAUGCCUGAAGAGCCUUGGUUUUUUG [A46C G77U A100C],-2.17
17,GACCAUUCUGCCCUCAGAGCUCGAGAACAUCUUCGGAUGCAGAGGAGUCAGGAUUCGGUGGCGCGAUAGCGCCAACGUCCUCAACCUGCAAUGCAUCCCACAACAUGAUGAUGCCUGAAGAGCCUUGGUUUUUUG [A6U G48U C53A C88G C102A],-3.09
18,GACCAACCUGCCCUCAGAGCUCGAGAACAUCUUCGGAUGCAGAGGAGGCAGGCUUCGGUGCCGCGAUAGCGCCAACGUCCUCAACCUCCAAUGCAUCCCACCACAUGAUGAUGCCUGAAGAGCCUUGGUUUUUUG [U7C G61C],-1.87
19,GACCAAUCUGCCCUCGGAGCUCGAGAACAUCUUCGGAUGCAGAGGAGGCAGGCUUCGGUGGCGCGAUAGCUCCAACGUCCUCAACCUCCAAUGCAUCCCACCACAUGAUGAUGCCUGAAGAGCCUUGGUUUUUUG [A16G G71U],-0.398
20,GACCAAUCUGCCCUCAGAGCUCGAGAACAUCUUCGGAUGCAGAGGAGGCAGGCUUCGGUGGCGCGAUAGCGCCAACGUCCUCAACCUCCAAUGCAUCCCAGCACAUGAUGAUGCCUGAAGAGCCUUGGUUUUUUU [C101G G135U],-2.44
21,GACCAUUCUGCCCUCAGAGCUCGAGAACAUCUUCGGAUGCAGAGGAGGCAGGCUUCGGUGGCGCGAUAGCGCCAACGUCCUCAACCUCCAAUGCAUCCCCCCACAAGAUGAUGCCUGAAGAGCCUUGGUUUUUUG [A6U A100C U106A],0.0954
